Measured values from publication PMC7813410, “Intraperitoneal insulin administration in pigs: effect on circulating insulin and glucose levels” (BMJ Open Diabetes Research & Care, 2021).
Read-outs that look alike come from different tables or passages of the source.

Tests used:
pigs = test: Blood glucose after intraperitoneal insulin boluses in anesthetized pigs; assay type: in vivo, pig; details: mean±SE
Protocol: In every stall, a heating lamp was provided.
(§1) The somatostatin analogs were injected 1 hour before the first insulin bolus of the day. 0.4 mg octreotide was injected intravenously and 0.3 mg pasireotide was injected subcutaneously. The octreotide injections were repeated hourly and the pasireotide injections were repeated every 3 hours during the trial.
To prevent hypoglycemia, a continuous venous glucose infusion was provided through the left internal jugular vein and was continued for the duration of the experiment. The blood glucose levels were kept in the range of 4.5–5.5 mmol/L before each insulin bolus was given.
In the first pig, we tested different glucose infusion rates to identify a suitable rate. In the remaining seven pigs, a constant glucose infusion rate of 8 g/hour was used throughout the experiments.
For both trials, arterial blood samples for glucose analysis were collected in heparinized syringes (LEO Pharma). Samples were analyzed on a Radiometer ABL 725 blood gas analyzer (Radiometer Medical, Brønshøj, Denmark). All blood samples were placed on ice immediately after extraction from the pigs. Most samples were analyzed consecutively, but some samples were stored on ice for a maximum of 20 min before analysis.
In the main trial, samples were collected 10, 5 and 1 min prior to the first somatostatin analog injection, every 10 min for the first hour after Sandostatin injection, every minute for the first 10 min after the insulin bolus, and every fifth minute thereafter for the next 110 min.
From the main trial, data from the last seven pigs were used for statistical analysis. We assumed the glucose levels at −5 min to be the baseline glucose levels at the start before each bolus (online supplemental figure S1).
Treatment and time were the sources of variation. […] Statistics were performed with GraphPad Prism V.8 Statistics.

[1] = Description: Between January 2017 and August 2018, eight juvenile, non-diabetic, cross-bred pigs (50% Landswine, 50% Yorkshire) approximately 3 months of age (one male (36.2 kg) and seven females (39.5±2.7 kg)) were brought from the same local farmer approximately 1 week before the trials and acclimatized to the staff and new environment. Whenever possible, the pigs were kept in groups in a common stall (11.2 m^2) with concrete floor covered with woodchips. In every stall, a heating lamp was provided. In the facility, a day-night photoperiod (night: 21:00–05:00, dawn: 05:00–07:00, day: 07:00–19:00, dusk: 19:00–21:00) was maintained at 22°C and a relative humidity of 45%±5%. The pigs were fed standard food (Format Vekst 100, Felleskjøpet, Norway) and fresh water was available ad libitum. Food was removed 17 hours before the start of the trial while water was available until anesthesia was initiated.
In the main trial, the first pig was used to obtain information about optimal infusion rate of glucose to maintain stable glucose levels throughout the trial days. The second pig was used to confirm the chosen infusion rate. The remaining six pigs were used to study the pharmacokinetics and pharmacodynamics of intraperitoneally delivered insulin boluses. However, all pigs received boluses of 2, 5 and 10 U of insulin (1 U/s) in the upper right quadrant of the intraperitoneal cavity. The order of insulin boluses for the first two pigs was 2, 5 and 10 U. The order of boluses for the last six pigs was randomized.[6] There were at least 2 hours and 30 min between each bolus.
At the start of every trial day, a fresh insulin analog (100 U/mL, NovoRapid, Novo Nordisk, Denmark) was inserted in an insulin pump (Animas Vibe).
(§2) In the main trial, all pigs (n=7) received three insulin boluses (2, 5 and 10 U) in the upper right intraperitoneal space. In the additional trial, insulin boluses were injected into the subcutaneous tissues in the left side of the neck. Two pigs received 10 U boluses and one pig received a 5 U bolus.
(§3) In both trials, blood samples for insulin analysis were stored on ice for at least 10 min before centrifugation (10 min at 2.000× rpm in a refrigerated centrifuge). Plasma was collected from the samples immediately after centrifugation and transferred into empty Eppendorf Tubes and temporarily stored at −20°C. At the end of each trial day, plasma samples were stored at −80°C.
(§4) Plasma insulin was analyzed as singles by Iso-Insulin ELISA kit (10-1128-01, Mercodia, Uppsala, Sweden). Suppression of endogenous insulin secretion was verified by analyses of Porcine Insulin ELISA (10-1200-01, Mercodia) according to the manufacturer’s protocol. The results were converted from mU/L to pmol/L by a conversion factor 6, as recommended by the manufacturer. The lowest detectable insulin concentration for the Iso-Insulin ELISA kit was <3.0 mU/L (18 pmol/L) and for Porcine Insulin ELISA was <2.3 mU/L (13.8 pmol/L).
Delta values collected from the main trial with different insulin boluses (2, 5 and 10 U) in the pigs were analyzed. In order to estimate possible significant differences in circulating insulin and blood glucose levels after IP insulin boluses, a two-way repeated measures analysis of variance was performed. Treatment and time were the sources of variation. Tukey’s multiple comparisons test was used for distinguishing comparisons between different insulin boluses. All non-measurable insulin values were set at 18 pmol/L. All treatments are compared as models; therefore, comparison between unequal groups is allowed. Statistics were performed with GraphPad Prism V.8 Statistics. All values are given as mean±SD, unless stated otherwise. Differences between the groups were considered significant if p≤0.05.

[2] = remark: listed apart in the source
Description: We also performed an additional trial to investigate subcutaneous insulin dynamics and effect on blood glucose levels, performed under similar conditions. For more details, see online supplemental material section 'Additional trial'. In short, between May 2019 and January 2020, three juvenile, non-diabetic, cross-bred male pigs (50% Landswine, 50% Yorkshire) approximately 3 months of age weighing 39.5±4.3 kg were brought from the same local farmer and kept in the conditions as in the main trial.
In the additional trial, two pigs received 10 U subcutaneous insulin boluses and one pig received a 5 U subcutaneous insulin bolus. All subcutaneous insulin boluses were performed as the first bolus of the day.
Additionally, all pigs received an intraperitoneal glucagon bolus (150 µg) 40 min after the insulin bolus.
as §2, §3, §4

[3] = in vitro model; cited from earlier work
Description: The liver is the major organ involved in glucose homeostasis.

[4] = test system: endogenous insulin secretion; test: Suppression of endogenous insulin secretion by somatostatin analogs (Porcine Insulin ELISA); assay type: in vivo, pig; details: octreotide 0.4 mg IV hourly together with pasireotide 0.3 mg SC every 3 hours, pigs, no detectable levels
Protocol: To suppress the endogenous insulin and glucagon secretion, all pigs received the somatostatin analogs octreotide (Sandostatin 200 µg/mL, Novartis Europharm, UK) and pasireotide (Signifor 0.3 mg/mL, Novartis Europharm).
as §1

[5] = 5 U subcutaneous bolus, n=1 pig
[6] = 10 U subcutaneous boluses, n=2 pigs

Substance | decrease of estimated mean blood glucose level after 5 U compared with 2 U intraperitoneal insulin boluses (pigs; 5 U vs 2 U IP bolus, anesthetized non-diabetic pigs, n=7, 120 min after bolus, glucose infusion 8 g/hour, 95% CI 0.31 to 0.65, p<0.0001) [mmol/L] | decrease of estimated mean blood glucose level after 10 U compared with 2 U intraperitoneal insulin boluses (pigs; 10 U vs 2 U IP bolus, anesthetized non-diabetic pigs, n=7, 120 min after bolus, glucose infusion 8 g/hour, 95% CI 0.44 to 0.79, p<0.0001) [mmol/L] | change of mean blood glucose level after 10 U compared with 5 U intraperitoneal insulin boluses (pigs; 10 U vs 5 U IP bolus, n=7 pigs, 95% CI −0.04 to 0.30, p=0.184, not different) [mmol/L] | effect on mean circulating insulin level ([1]; 2 U IP bolus, n=7 pigs) | effect on mean circulating insulin level ([1]; 5 U IP bolus, n=7 pigs) | mean circulating insulin levels after 5 U compared with 2 U intraperitoneal insulin boluses ([1]; 5 U vs 2 U IP bolus, n=7 pigs, p=0.89) | time after which mean circulating insulin level was close to baseline ([1]; 10 U IP bolus, n=7 pigs) [min] | time after which mean insulin level started to increase ([1]; 10 U IP bolus, n=7 pigs) [min] | increase of mean circulating insulin level after 10 U compared with 2 U intraperitoneal insulin boluses ([1]; 10 U vs 2 U IP bolus, n=7 pigs, plasma, Iso-Insulin ELISA, mean±SE, 95% CI 1.99 to 5.37, p<0.0001) [pmol/L] | increase of mean circulating insulin level after 10 U compared with 5 U intraperitoneal insulin boluses ([1]; 10 U vs 5 U IP bolus, n=7 pigs, plasma, Iso-Insulin ELISA, mean±SE, 95% CI 5.86 to 10.89, p<0.0001) [pmol/L] | first-pass effect in the liver ([1]; after the smaller (2 and 5 U) IP insulin boluses, inferred from circulating insulin levels in pigs) [%] | time after bolus at which insulin level was increased [2, 5] [min] | time at which insulin levels were still elevated [2, 5] [min] | time after boluses at which mean insulin level was increased [2, 6] [min] | time at which insulin levels were still elevated [2, 6] [min] | mean circulating insulin level after subcutaneous compared with intraperitoneal insulin boluses ([2]; subcutaneous (5 U n=1, 10 U n=2) vs IP boluses (n=7), p value not calculated) | hepatic first-pass effect [3] | endogenous insulin levels during the experiments [4] [pmol/L]
insulin: fresh insulin analog (100 U/mL, NovoRapid, Novo Nordisk, Denmark) delivered by insulin pump | 0.48 ± 0.07 | 0.61 ± 0.07 | 0.13 ± 0.07 | did not increase | did not increase | not different | 80 | 10 | 7.89 ± 1.07 | 8.37 ± 1.07 | ~100 | 5 | 140 | 5 | 140 | increased more | up to 80% | –
octreotide | – | – | – | – | – | – | – | – | – | – | – | – | – | – | – | – | – | < 13.8
pasireotide | – | – | – | – | – | – | – | – | – | – | – | – | – | – | – | – | – | < 13.8
